From publication PMC6321125, “Characterization of a Carbonyl Reductase from Rhodococcus erythropolis WZ010 and Its Variant Y54F for Asymmetric Synthesis of (S)-N-Boc-3-Hydroxypiperidine” (Molecules, 2018) come the findings set out here.

Experiment in all cases: purified protein
Substrate in series [1]: CC(C)O
To be noted: apparent, 0.4 mM NAD+, standard assay 50 mM CAPSO pH 10.0, 50 °C.

Substrate in series [2]: CC(C)(C)OC(=O)N1CCCC(=O)C1
The series is classed as biochemical, Rhodococcus erythropolis. To be noted: apparent, 0.4 mM NADH, standard assay 50 mM PIPES pH 6.0, 60 °C.

Substrate in series [3]: CC(C)=O
The series is classed as biochemical, Rhodococcus erythropolis. To be noted: apparent, 0.4 mM NADH, standard assay 50 mM PIPES pH 6.0, 60 °C.

Substrate in series [4]: CCCCCCC(C)=O
Type of series: biochemical, Rhodococcus erythropolis. To be noted: apparent, 0.4 mM NADH, standard assay 50 mM PIPES pH 6.0, 60 °C.

Substrate in series [5]: CCCCCCC(C)O
Type of series: biochemical, Rhodococcus erythropolis. To be noted: apparent, 0.4 mM NAD+, standard assay 50 mM CAPSO pH 10.0, 50 °C.

As usually defined, the Km is the substrate concentration at which the rate is half of its maximum. The term Vmax denotes the rate approached at saturating substrate. One may read the kcat as the number of substrate molecules converted per active site and unit of time at saturation. A word on the kcat/Km: it is the second-order rate constant that governs catalysis at low substrate concentration.

B1: ReCR (Rhodococcus erythropolis; G336R/K233S/K67R/N94S/Q110S) (protein)
chain: MKAIQYTRIGAEPELTEIPKPEPGPGEVLLEVTAAGVCHSDDFIMSLPEEQYTYGLPLTLGHEGAGRVAAVGEGVEGLDIGTNVVVYGPWGCGSCWHCSQGLENYCSRASELGINPPGLGAPGALAEFMIVDSPRHLVPIGDLDPVKTVPLTDAGLTPYHAIKRSLPKLRGGSYAVVIGTGGLGHVAIQLLRHLSAATVIALDVSADKLELATKVGAHEVVLSDKDAAENVRSITGSQGAALVLDFVGYQPTIDTAMAVAGVGSDVTIVGIGDGQAHAKVGFFQSPYEASVTVPYWGARNELIELIDLAHAGIFDIAVETFSLDNGAEAYRRLAARTLSGRAVVVPGL
Consider B1, for which the Km in series [1] was 1460 ± 60 µM; in series [2] it was 1740 ± 80 µM; in series [3], 46060 ± 2620 µM; in series [4], 3290 ± 50 µM; in series [5] it was 4940 ± 450 µM. The Vmax in series [1] worked out at 23.5 µmol/min/mg; in series [2], 104 µmol/min/mg; in series [3], 66.3 µmol/min/mg; in series [4] it was 236 µmol/min/mg; in series [5], 107 µmol/min/mg. Further, the kcat in series [1] was 14.2 s⁻¹; in series [2], 62.6 ± 1.49 s⁻¹; in series [3], 40.1 ± 1.98 s⁻¹; in series [4], 142 ± 3.11 s⁻¹; in series [5], 64.4 ± 1.66 s⁻¹. Also, the kcat/Km in series [1] was 9740 M⁻¹ s⁻¹; in series [2] it was 36000 ± 860 M⁻¹ s⁻¹; in series [3], 870 ± 40 M⁻¹ s⁻¹; in series [4], 43300 ± 950 M⁻¹ s⁻¹; in series [5], 13000 ± 340 M⁻¹ s⁻¹.

B2: ReCR (Rhodococcus erythropolis; G336R/K233S/K67R/N94S/Q110S/Y54F) (protein)
chain: MKAIQYTRIGAEPELTEIPKPEPGPGEVLLEVTAAGVCHSDDFIMSLPEEQYTFGLPLTLGHEGAGRVAAVGEGVEGLDIGTNVVVYGPWGCGSCWHCSQGLENYCSRASELGINPPGLGAPGALAEFMIVDSPRHLVPIGDLDPVKTVPLTDAGLTPYHAIKRSLPKLRGGSYAVVIGTGGLGHVAIQLLRHLSAATVIALDVSADKLELATKVGAHEVVLSDKDAAENVRSITGSQGAALVLDFVGYQPTIDTAMAVAGVGSDVTIVGIGDGQAHAKVGFFQSPYEASVTVPYWGARNELIELIDLAHAGIFDIAVETFSLDNGAEAYRRLAARTLSGRAVVVPGL
With B2, the Km in series [1] is 1030 ± 50 µM; in series [2] it was 1730 ± 50 µM; in series [3], 37320 ± 560 µM; in series [4], 3110 ± 120 µM; in series [5], 1370 ± 80 µM. For the same protein, the Vmax in series [1] is 35.3 µmol/min/mg; in series [2], 141 µmol/min/mg; in series [3], 90.5 µmol/min/mg; in series [4], 274 µmol/min/mg; in series [5] it was 128 µmol/min/mg. Further, the kcat in series [1] turned out to be 21.3 s⁻¹; in series [2], 85.1 ± 3.94 s⁻¹; in series [3], 54.7 ± 1.02 s⁻¹; in series [4], 165 ± 4.58 s⁻¹; in series [5] it was 77.5 ± 1.88 s⁻¹. Moreover, the kcat/Km in series [1] came out at 20700 M⁻¹ s⁻¹; in series [2], 49200 ± 2280 M⁻¹ s⁻¹; in series [3] it was 1470 ± 30 M⁻¹ s⁻¹; in series [4], 53200 ± 1470 M⁻¹ s⁻¹; in series [5], 56600 ± 1370 M⁻¹ s⁻¹.
